The source of these data is patent US20110250237A1, “IMMUNOGENIC AMPHIPATHIC PEPTIDE COMPOSITIONS” (priority 2008, published 2011).

The data set is described as follows: Differential scanning calorimetry of peptide and particles. The data set is classed as physicochemical. As to conditions: normal saline, peptide 1.11 mg/ml, scanned 20° C. to 130° C. How it is done: Differential scanning calorimetry is used to study the unfolding events associated with the peptide and particles. This technique is used to measure the amount of heat required to increase the temperature of the sample and reference, resulting in peaks at phase transition temperatures at which more heat is required by the samples to be maintained at the same temperature as the reference. In case of proteins the melting temperatures are determined at which half of the protein exists in an unfolded state.
The peptide of SEQ ID NO: 1 is used to form particles at peptide to lipid (POPC) molar ratios of 1:1.75, 1:3 and 1:7, the particles with peptide at concentration of 1.11 mg/ml and lipid at 0.55 mg/ml are used. The peptide alone and lipid alone are used as controls and the samples are scanned from 20° C. to 130° C.

“DWLKAFYDKVAEKLKEAFLA [peptide SEQ ID NO: 1, amphipathic peptide]” displayed a phase transition of 50 °C.
